The record followed here is article PMC10030265, “The lipid linked oligosaccharide polymerase Wzy and its regulating co-polymerase, Wzz, from enterobacterial common antigen biosynthesis form a complex” (Open Biology, 2023).

Series [1] has as its target WzyEPA-GST-distrepII (Pectobacterium atrosepticum) (UniProt Q6CZF1). Briefly: cryo-EM structure; negative stain and single-particle cryo-EM of the WzyEPA : WzzEPA complex labelled with the IgG anti-strep tag II antibody; model at approximately 20 Å, C2 symmetry, dumbbell of two WzzEPA octamers.
For a further series, the target named is T1, WzyEPA-distrepII (Pectobacterium atrosepticum, UniProt Q6CZF1 1-463).
T1 construct: WzyE, ECA polymerase, Pectobacterium atrosepticum SCRI 1043 (ATCC BAA-672); cloned into a proprietary vector constructed by Huanting Liu; Predicted 57 kDa; the distrepII tag is TEV protease-cleavable; source: DDM-solubilised membranes; not shown: distrepII, C-terminal, kept
T1 sequence (looked up): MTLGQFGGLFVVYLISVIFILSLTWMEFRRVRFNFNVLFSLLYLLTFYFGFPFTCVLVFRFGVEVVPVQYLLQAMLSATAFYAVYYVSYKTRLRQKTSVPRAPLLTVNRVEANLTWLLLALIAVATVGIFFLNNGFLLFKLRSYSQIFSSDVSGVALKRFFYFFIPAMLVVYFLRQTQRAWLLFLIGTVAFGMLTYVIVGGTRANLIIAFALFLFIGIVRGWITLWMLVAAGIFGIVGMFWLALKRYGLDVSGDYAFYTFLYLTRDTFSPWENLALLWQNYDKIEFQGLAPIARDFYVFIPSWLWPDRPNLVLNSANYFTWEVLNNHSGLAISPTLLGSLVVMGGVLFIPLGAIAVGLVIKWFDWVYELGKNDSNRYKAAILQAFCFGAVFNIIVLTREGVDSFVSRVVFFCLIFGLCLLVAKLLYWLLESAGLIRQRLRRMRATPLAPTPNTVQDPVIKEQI
Put plainly: quantitative immuno-dot blot; serial dilution of the co-purified complex on nitrocellulose, standard curves of each purified protein, HRP-coupled anti-His and anti-strep tag II, chemiluminescence; corrected for untagged Wzz. The conditions noted are these: both partners purified.

Series [2] deals with the molecule itself. Briefly: cryo-EM structure; negative stain and single-particle cryo-EM of the WzyEPA : WzzEPA complex labelled with the IgG anti-strep tag II antibody; model at approximately 20 Å, C2 symmetry, dumbbell of two WzzEPA octamers.
Series [3] deals with the molecule itself. Briefly: cryo-EM structure; TEV-cleaved, SEC-purified WzzEPA : WzyEPA sample at 5 mg/ml in DDM; Titan Krios; C4 symmetry; 3.6 Å; only WzzEPA seen in the map.

In series [1], “His6-WzzEPA (from UniProt Q6CZE3 1-348) (natural protein)” gave a stoichiometry N (WzzEPA per WzyEPA) of 8.

B1: His6-WzzEPA (natural protein, Pectobacterium atrosepticum, UniProt Q6CZE3 1-348, looked up)
chain: MKSENLSTGNALIDNELDIRGLFRLLWRGKVWPIAIGLLFAVVALGYSYLVKQEWGATSITDKPTVNMLGGYYSQQQFLRNLDARSFSSPQPEQPSISAGAYDEFIMQLAAYDTRRDFWLQTDYYKQRLEGDEKADAALLDELVNNIQFTARDDGKKTNDSVKLVAETSSDSNTLLRQYVVFASQRAANHLNEEIKGAWAARTIFMKSQIKRQEAVAKAIYDREVRSVELALKIAQQQGISRSQTDTPADEIPASEMFLLGRPMLQARLETLQTSGPHYELDYDQNRAMLATLNVGPTLEASFQTYRYLRTPEEPVKRDSPRRAFLMVMWGAIGVLVGAGVALARRLR
notes: WzzE, polysaccharide co-polymerase of enterobacterial common antigen biosynthesis, Pectobacterium atrosepticum SCRI 1043 (ATCC BAA-672); cloned into pEHisTEV; Predicted 42 kDa; His6 tag is TEV protease-cleavable; The methods say that Wzz ran as a double band and that the lower band was not seen by the anti-His antibody (partly untagged); Isolated Wzz may have various oligomeric states; octamer in …
Turning to B1, the “stoichiometry N” value in the series with WzyEPA-distrepII was 9.6 ± 1.8 His6-WzzEPA : WzyEPA-distrepII (molar ratio); in series [2] it was 8 subunits in the oligomer.

B2: WzzEPA (TEV protease cleaved, affinity tag removed) (natural protein, Pectobacterium atrosepticum, UniProt Q6CZE3 1-348, looked up)
chain: MKSENLSTGNALIDNELDIRGLFRLLWRGKVWPIAIGLLFAVVALGYSYLVKQEWGATSITDKPTVNMLGGYYSQQQFLRNLDARSFSSPQPEQPSISAGAYDEFIMQLAAYDTRRDFWLQTDYYKQRLEGDEKADAALLDELVNNIQFTARDDGKKTNDSVKLVAETSSDSNTLLRQYVVFASQRAANHLNEEIKGAWAARTIFMKSQIKRQEAVAKAIYDREVRSVELALKIAQQQGISRSQTDTPADEIPASEMFLLGRPMLQARLETLQTSGPHYELDYDQNRAMLATLNVGPTLEASFQTYRYLRTPEEPVKRDSPRRAFLMVMWGAIGVLVGAGVALARRLR
notes: WzzE, Pectobacterium atrosepticum SCRI 1043; residues I39-V337 modelled, residues 1-39 and 338-348 not visualized; also called full length WzzEPA; source: E. coli C43(DE3), co-expressed with WzyEPA; not shown: His6, N-terminal, cleaved
Regarding B2, in series [3], the “stoichiometry N” value was found to be 8 subunits in the oligomer.

The term stoichiometry N denotes a count of units in the complex or per binding partner.
